Drawing on article PMC4546058, this text covers Molecular Activity (2-phosphoglycerate to phosphoenolpyruvate, 20°C), taken as the amount of octamer, stoichiometry N and total amount of octamer estimated from activity assays, as percent of the concentration of the Str enolase DB for 10 substances.

Usually stoichiometry N stands for the number of molecules, sites or subunits per partner or assembly.

Assay [1] concerns the target Str enolase 137/363–1 (ΔK435) (Streptococcus pyogenes) (UniProt P69949).
For assay [2] the target is unchanged. The experiment in a line: AUC; sedimentation velocity, Beckman XL-I, 20°C, 30 000-37 000 RPM, TME-SO4 (50 mM Tris, 1 mM MgSO4, 0.1 mM EDTA, 44 mN H2SO4, pH 7.4); c(s) in Sedfit; octamer to 8 monomers.
Assay [3] addresses Str enolase 137/363–2 (ΔK434-K435) (Streptococcus pyogenes) (UniProt P69949).
Assay [4] has the same target. The experiment in a line: AUC; sedimentation velocity, Beckman XL-I, 20°C, 30 000-37 000 RPM, TME-SO4 (50 mM Tris, 1 mM MgSO4, 0.1 mM EDTA, 44 mN H2SO4, pH 7.4); c(s) in Sedfit; octamer to 8 monomers.
Assay [5] addresses Str enolase 137/363–3 (ΔL433-K435) (Streptococcus pyogenes) (UniProt P69949).
For assay [6] the target is unchanged. The assay can be described thus: AUC; sedimentation velocity, Beckman XL-I, 20°C, 30 000-37 000 RPM, TME-SO4 (50 mM Tris, 1 mM MgSO4, 0.1 mM EDTA, 44 mN H2SO4, pH 7.4); c(s) in Sedfit; octamer to 8 monomers.
For assay [7], the target named is Str enolase 137/363–4 (ΔN432-K435) (Streptococcus pyogenes) (UniProt P69949).
Assay [8] has the same target. The assay can be described thus: AUC; sedimentation velocity, Beckman XL-I, 20°C, 30 000-37 000 RPM, TME-SO4 (50 mM Tris, 1 mM MgSO4, 0.1 mM EDTA, 44 mN H2SO4, pH 7.4); c(s) in Sedfit; octamer to 8 monomers.
Assay [9] concerns the target Str enolase 137/363–5 (ΔY431-K435) (Streptococcus pyogenes) (UniProt P69949).
Assay [10] has the same target. The assay can be described thus: AUC; sedimentation velocity, Beckman XL-I, 20°C, 30 000-37 000 RPM, TME-SO4 (50 mM Tris, 1 mM MgSO4, 0.1 mM EDTA, 44 mN H2SO4, pH 7.4); c(s) in Sedfit; octamer to 8 monomers.
The target in assay [11] is Str enolase 137/363–6 (ΔF430-K435) (Streptococcus pyogenes) (UniProt P69949).
For assay [12] the target is unchanged. The source holds these as a separate data set.
The target in assay [13] is Str enolase 137/363–8 (ΔK428-K435) (Streptococcus pyogenes) (UniProt P69949).
Assay [14] has the same target. This is another data set of the same source.
The target in assay [15] is Str enolase DB E363G (Streptococcus pyogenes) (UniProt P69949).
Assay [16] has the same target. The assay can be described thus: AUC; sedimentation velocity, Beckman XL-I, 20°C, 30 000-37 000 RPM, TME-SO4 (50 mM Tris, 1 mM MgSO4, 0.1 mM EDTA, 44 mN H2SO4, pH 7.4); c(s) in Sedfit; octamer to 8 monomers.
Assay [17] addresses Str enolase DB F137L (Streptococcus pyogenes) (UniProt P69949).
The target is the same in assay [18]. The assay can be described thus: AUC; sedimentation velocity, Beckman XL-I, 20°C, 30 000-37 000 RPM, TME-SO4 (50 mM Tris, 1 mM MgSO4, 0.1 mM EDTA, 44 mN H2SO4, pH 7.4); c(s) in Sedfit; octamer to 8 monomers.
The target of assay [19] is enolase from Streptococcus pyogenes F137L/E363G (Streptococcus pyogenes) (UniProt P69949).
The target is the same in assay [20]. The experiment in a line: AUC; sedimentation velocity, Beckman XL-I, 20°C, 30 000-37 000 RPM, TME-SO4 (50 mM Tris, 1 mM MgSO4, 0.1 mM EDTA, 44 mN H2SO4, pH 7.4); c(s) in Sedfit; octamer to 8 monomers.

In the case of “Str enolase 137/363–1 (ΔK435) (from UniProt P69949 1-434) (enzyme)”, the Molecular Activity (2-phosphoglycerate to phosphoenolpyruvate, 20°C), taken as the amount of octamer in assay [1] was 4040 min⁻¹. Also, the stoichiometry N in assay [2] is 8.

Take “Str enolase 137/363–2 (ΔK434-K435) (from UniProt P69949 1-433) (enzyme)”: the Molecular Activity (2-phosphoglycerate to phosphoenolpyruvate, 20°C), taken as the amount of octamer in [3] turned out to be 1730 min⁻¹. This substance yielded a stoichiometry N in assay [4] of 8.

In turn, “Str enolase 137/363–3 (ΔL433-K435) (from UniProt P69949 1-432) (enzyme)” gave a Molecular Activity (2-phosphoglycerate to phosphoenolpyruvate, 20°C), taken as the amount of octamer in assay [5] of 497 min⁻¹. In assay [6], this substance displayed a stoichiometry N of 8.

With “Str enolase 137/363–4 (ΔN432-K435) (from UniProt P69949 1-431) (enzyme)”, in assay [7], the Molecular Activity (2-phosphoglycerate to phosphoenolpyruvate, 20°C), taken as the amount of octamer worked out at 27 min⁻¹. Besides, the stoichiometry N in assay [8] was 8.

For “Str enolase 137/363–5 (ΔY431-K435) (from UniProt P69949 1-430) (enzyme)”, the Molecular Activity (2-phosphoglycerate to phosphoenolpyruvate, 20°C), taken as the amount of octamer in [9] stood at 0.36 min⁻¹. The stoichiometry N in assay [10] is 8.

Regarding “Str enolase 137/363–6 (ΔF430-K435) (from UniProt P69949 1-429) (enzyme)”, the Molecular Activity (2-phosphoglycerate to phosphoenolpyruvate, 20°C), taken as the amount of octamer in assay [11] was 0.22 min⁻¹. Moreover, the total amount of octamer estimated from activity assays, as percent of the concentration of the Str enolase DB in assay [12] was 0.0002%.

The substance “Str enolase 137/363–8 (ΔK428-K435) (from UniProt P69949 1-427) (enzyme)” gave a Molecular Activity (2-phosphoglycerate to phosphoenolpyruvate, 20°C), taken as the amount of octamer in assay [13] of 0.08 min⁻¹. The total amount of octamer estimated from activity assays, as percent of the concentration of the Str enolase DB in assay [14] is 0.0002%.

As to “Str enolase DB E363G (from UniProt P69949 1-435) (enzyme)”, the Molecular Activity (2-phosphoglycerate to phosphoenolpyruvate, 20°C), taken as the amount of octamer in [15] was found to be 8460 min⁻¹. The stoichiometry N in [16] is 8.

“Str enolase DB F137L (from UniProt P69949 1-435) (enzyme)” had a Molecular Activity (2-phosphoglycerate to phosphoenolpyruvate, 20°C), taken as the amount of octamer in assay [17] of 7160 min⁻¹. In assay [18], this substance registered a stoichiometry N of 8.

As for “enolase from Streptococcus pyogenes F137L/E363G (from UniProt P69949 1-435) (enzyme)”, the Molecular Activity (2-phosphoglycerate to phosphoenolpyruvate, 20°C), taken as the amount of octamer in assay [19] came to 5250 min⁻¹. The substance also showed a stoichiometry N in assay [20] of 8.
